Results on one molecule are retold here after patent US20050054043A1 (UNIVERSITY OF VERMONT, published 2005).

The target in assay [1] is T1, transferrin receptor on HeLa S3 cells (human, UniProt P02786 1-760).
T1 construct: whole, on cells; also called human receptors; cell-surface transferrin receptors
Put plainly: direct equilibrium binding of radioiodinated diferric transferrin to HeLa S3 cells, LIGAND fit (apparent Kd').
Experimental: After 30 min of incubation at 37° C. with gentle shaking, portions of the cell suspension (3×100 μL) were pipetted into microfuge tubes containing 0.9 mL of ice-cold JMEM-BSA over 300 μL of dibutyl phthalate and centrifuged for 2 min in a Beckman microfuge. The aqueous and organic phases were aspirated to just above the cell pellet. The bottom of the tube containing the cell pellet was released by a hot wire into a plastic tube (12×75 mm) and assayed for radioactivity.

Assay [2] deals with T1, transferrin receptor on HeLa S3 cells. In words: competition of unlabeled transferrin against radioiodinated Boehringer Mannheim hTf on HeLa S3 cells, LIGAND fit (apparent Kd').
Experimental: Cells were routinely grown in DMEM-F-12 containing 10% newborn calf serum. Prior to beginning a binding experiment, the cells were harvested with Versene, and taken up in Joklik's minimum essential medium-20 mM Hepes-2% BSA (JMEM-BSA). Endogenous bovine transferrin was removed from the HeLa cells by incubation for 10 min at 37° C. at a 5-fold dilution with JMEM-BSA. After centrifugation of the cells and removal of the supernatant, this procedure was repeated twice. […] After 30 min of incubation at 37° C. with gentle shaking, portions of the cell suspension (3×100 μL) were pipetted into microfuge tubes containing 0.9 mL of ice-cold JMEM-BSA over 300 μL of dibutyl phthalate and centrifuged for 2 min in a Beckman microfuge. The aqueous and organic phases were aspirated to just above the cell pellet. The bottom of the tube containing the cell pellet was released by a hot wire into a plastic tube (12×75 mm) and assayed for radioactivity.

T1 sequence (P02786 whole entry): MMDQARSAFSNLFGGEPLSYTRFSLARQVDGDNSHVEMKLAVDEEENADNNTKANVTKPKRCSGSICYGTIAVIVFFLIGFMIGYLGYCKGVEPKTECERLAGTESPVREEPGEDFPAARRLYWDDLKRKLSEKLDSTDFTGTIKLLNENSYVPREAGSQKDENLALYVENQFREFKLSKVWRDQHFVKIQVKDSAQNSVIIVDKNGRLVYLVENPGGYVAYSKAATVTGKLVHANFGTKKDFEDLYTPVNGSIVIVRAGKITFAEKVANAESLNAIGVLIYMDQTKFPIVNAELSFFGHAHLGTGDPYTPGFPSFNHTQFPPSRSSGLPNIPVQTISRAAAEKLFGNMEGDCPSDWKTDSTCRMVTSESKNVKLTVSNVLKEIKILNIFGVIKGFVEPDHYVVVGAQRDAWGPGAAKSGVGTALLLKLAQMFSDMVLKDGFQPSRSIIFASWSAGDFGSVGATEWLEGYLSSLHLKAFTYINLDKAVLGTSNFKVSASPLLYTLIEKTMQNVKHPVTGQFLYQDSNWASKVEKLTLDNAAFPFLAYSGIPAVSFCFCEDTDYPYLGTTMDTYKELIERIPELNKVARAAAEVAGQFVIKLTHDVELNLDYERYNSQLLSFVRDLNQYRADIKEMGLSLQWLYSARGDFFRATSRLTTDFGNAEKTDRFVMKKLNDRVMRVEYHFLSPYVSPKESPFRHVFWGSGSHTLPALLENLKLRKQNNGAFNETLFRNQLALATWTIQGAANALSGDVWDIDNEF

B1: hTf N413D/N611D mutant (recombinant nonglycosylated human serum transferrin), diferric (ligand)
chain: VPDKTVRWCAVSEHEATKCQSFRDHMKSVIPSDGPSVACVKKASYLDCIRAIAANEADAVTLDAGLVYDAYLAPNNLKPVVAEFYGSKEDPQTFYYAVAVVKKDSGFQMNQLRGKKSCHTGLGRSAGWNIPIGLLYCDLPEPRKPLEKAVANFFSGSCAPCADGTDFPQLCQLCPGCGCSTLNQYFGYSGAFKCLKDGAGDVAFVKHSTIFENLANKADRDQYELLCLDNTRKPVDEYKDCHLAQVPSHTVVARSMGGKEDLIWELLNQAQEHFGKDKSKEFQLFSSPHGKDLLFKDSAHGFLKVPPRMDAKMYLGYEYVTAIRNLREGTCPEAPTDECKPVKWCALSHHERLKCDEWSVNSVGKIECVSAETTEDCIAKIMNGEADAMSLDGGFVYIAGKCGLVPVLAENYDKSDNCEDTPEAGYFAVAVVKKSASDLTWDNLKGKKSCHTAVGRTAGWNIPMGLLYNKINHCRFDEFFSEGCAPGSKKDSSLCKLCMGSGLNLCEPNNKEGYYGYTGAFRCLVEKGDVAFVKHQTVPQNTGGKNPDPWAKNLNEKDYELLCLDGTRKPVEEYANCHLARAPNHAVVTRKDKEACVHKILRQQQHLFGSDVTDCSGNFCLFRSETKDLLFRDDTVCLAKLHDRNTYEKYLGEEYVKAVGNLRKCSTSSLLEACTFRRP
modifications: non-glycosylated; diferric (iron-saturated); radioiodinated in Table 2 (A), unlabeled in (B)
notes: Full-length human transferrin with both N-glycosylation sites changed to Asp, expressed in BHK cells; Positions use mature-protein numbering; also called hTf(N/D)
For B1, the Kd in assay [1] amounted to 23.4 nM; in assay [2], 19.8 nM.
